Data reported in patent US5721133.

Assays:
[1] = target: hybrid regulatory protein encoded by plasmid pHP236 (GAL4 residues 1-147, functional HIV-1 protease linker, GAL4 residues 768-881) (yeast S. cerevisiae; HIV-1 (λHXB-2 subclone)) (UniProt P04585)
[2] = target: hybrid regulatory protein encoded by plasmid p1009 (GAL4 residues 1-147, functional wild-type Coxsackievirus 3C protease linker, GAL4 residues 768-881) (yeast S. cerevisiae; Coxsackievirus (CVB3)) (UniProt P03313)

Substance | β-Galactosidase Activity (MUG units), GAL1-lacZ reporter in yeast GGY1::171 [1] [MUG units] | β-Galactosidase Activity (MUG units), GAL1-lacZ reporter in yeast GGY1::171 [2] [MUG units]
hybrid regulatory protein encoded by plasmid pHP236 (GAL4 residues 1-147, functional HIV-1 protease linker, GAL4 residues 768-881) (from UniProt P04585) (enzyme) | 68 | 
hybrid regulatory protein encoded by plasmid p1009 (GAL4 residues 1-147, functional wild-type Coxsackievirus 3C protease linker, GAL4 residues 768-881) (from UniProt P03313) (enzyme) |  | 14
